Laboratory results taken from patent US7294753.
Values belong to the substance of their own block, whether it stands above or below them.

Legend:
[1] = molecular target: human macrophage migration inhibitory factor (MIF) (human) (UniProt P14174); experiment: cell-based or functional assay
[2] = molecular target: CD80 (UniProt P33681); experiment: comparator antibody, sub-head 'Kd'; method and antigen not stated
[3] = molecular target: CD23 (UniProt P06734); experiment: as above
Sequence of CD23 (P06734 48-321 limits assumed): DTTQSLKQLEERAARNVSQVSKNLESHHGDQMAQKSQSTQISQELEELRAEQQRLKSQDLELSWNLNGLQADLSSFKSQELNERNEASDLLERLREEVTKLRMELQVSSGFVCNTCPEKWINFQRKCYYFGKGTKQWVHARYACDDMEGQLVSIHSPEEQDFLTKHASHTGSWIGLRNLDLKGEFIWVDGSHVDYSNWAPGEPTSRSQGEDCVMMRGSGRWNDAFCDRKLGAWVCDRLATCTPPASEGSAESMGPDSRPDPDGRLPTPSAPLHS

Sequence of human macrophage migration inhibitory factor (MIF) (human) (P14174 2-115 limits assumed): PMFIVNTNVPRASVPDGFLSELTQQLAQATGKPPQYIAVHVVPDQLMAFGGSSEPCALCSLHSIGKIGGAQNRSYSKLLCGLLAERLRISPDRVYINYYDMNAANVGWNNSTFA
Sequence of CD80 (P33681 35-242 limits assumed): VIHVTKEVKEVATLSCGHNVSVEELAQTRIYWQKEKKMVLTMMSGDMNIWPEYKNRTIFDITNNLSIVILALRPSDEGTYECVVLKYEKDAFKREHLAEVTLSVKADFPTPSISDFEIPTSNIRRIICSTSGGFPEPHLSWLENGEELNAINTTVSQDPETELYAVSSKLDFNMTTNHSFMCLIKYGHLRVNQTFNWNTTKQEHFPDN

% MIF PPT Activity [1]: 105%
Substance: 2B8 (murine anti-CD20 Mab) (antibody)

Kd [2]: 2.2 nM
Substance: IDEC-114 (anti-CD80 mab) (antibody)

Kd [3]: 1.2 nM
Substance: IDEC-152 (anti-CD23 mab) (antibody)
